According to the PETadex activity labels (doi:10.1016/j.bbalip.2005.11.003):

B1: unnamed (protein)
chain: MAKKDEHLRKPEWLKIKLNTNENYTGLKKLMRENNLHTVCEEAKCPNIHECWAVRRTATFMILGSVCTRACRFCAVKTGLPTELDLQEPERVADSVALMNLKHAVITAVARDDQKDGGAGIFAETVRAIRRKSPFTTIEVLPSDMGGNYDNLKTLMDTRPDILNHNIETVRRLTPRVRARATYDRSLEFLRRAKEMQPDIPTKSSIMIGLGETKEEIIEVMDDLLANNVDIMAIGQYLQPTKKHLKVQKYYHPDEFAELKEIAMQKGFSHCEAGPLVRSSYHADEQVNEASKKRQAQA
B2: unnamed (protein)
chain: MTEPTVARPDIDPVLKMLLDTFPVTFTAADGVEVARARLRQLKTPPELLPELRIEERTVGYDGLTDIPVRVYWPPVVRDNLPVVVYYHGGGWSLGGLDTHDPVARAHAVGAQAIVVSVDYRLAPEHPYPAGIDDSWAALRWVGENAAELGGDPSRIAVAGDSAGGNISAVMAQLARDVGGPPLVFQLLWYPTTMADLSLPSFTENADAPILDRDVIDAFLAWYVPGLDISDHTMLPTTLAPGNADLSGLPPAFIGTAEHDPLRDDGACYAELLTAAGVSVELSNEPTMVHGYVNFALVVPAAAEATGRGLAALKRALHA
B3: unnamed (protein)
chain: MEPGSKSVSRSDWQPEPHQRPITPLEPGPEKTPIAQPESKTLQGSNTQQKPASNQRPLTQQETPAQHDAESQKEPRAQQKSASQEEFLAPQKPAPQQSPYIQRVLLTQQEAASQQGPGLGKESITQQEPALRQRHVAQPGPGPGEPPPAQQEAESTPAAQAKPGAKREPSAPTESTSQETPEQSDKQTTPVQGAKSKQGSLTELGFLTKLQELSIQRSALEWKALSEWVTDSESESDVGSSSDTDSPATMGGMVAQGVKLGFKGKSGYKVMSGYSGTSPHEKTSARNHRHYQDTASRLIHNMDLRTMTQSLVTLAEDNIAFFSSQGPGETAQRLSGVFAGVREQALGLEPALGRLLGVAHLFDLDPETPANGYRSLVHTARCCLAHLLHKSRYVASNRRSIFFRTSHNLAELEAYLAALTQLRALVYYAQRLLVTNRPGVLFFEGDEGLTADFLREYVTLHKGCFYGRCLGFQFTPAIRPFLQTISIGLVSFGEHYKRNETGLSVAASSLFTSGRFAIDPELRGAEFERITQNLDVHFWKAFWNITEMEVLSSLANMASATVRVSRLLSLPPEAFEMPLTADPTLTVTISPPLAHTGPGPVLVRLISYDLREGQDSEELSSLIKSNGQRSLELWPRPQQAPRSRSLIVHFHGGGFVAQTSRSHEPYLKSWAQELGAPIISIDYSLAPEAPFPRALEECFFAYCWAIKHCALLGSTGERICLAGDSAGGNLCFTVALRAAAYGVRVPDGIMAAYPATMLQPAASPSRLLSLMDPLLPLSVLSKCVSAYAGAKTEDHSNSDQKALGMMGLVRRDTALLLRDFRLGASSWLNSFLELSGRKSQKMSEPIAEPMRRSVSEAALAQPQGPLGTDSLKNLTLRDLSLRGNSETSSDTPEMSLSAETLSPSTPSDVNFLLPPEDAGEEAEAKNELSPMDRGLGVRAAFPEGFHPRRSSQGATQMPLYSSPIVKNPFMSPLLAPDSMLKSLPPVHIVACALDPMLDDSVMLARRLRNLGQPVTLRVVEDLPHGFLTLAALCRETRQAAELCVERIRLVLTPPAGAGPSGETGAAGVDGGCGGRH

substrate: p-NP-C4; settings: pH 7; 25 °C

Row | Protein | Km | kcat | kcat/Km
1 | B1 | 0.75 mM | 50 s⁻¹ | 66700 M⁻¹ s⁻¹
2 | B2 | 0.05 mM | 185 s⁻¹ | 3.7e+06 M⁻¹ s⁻¹
3 | B3 | 1 mM | 190 s⁻¹ | 190000 M⁻¹ s⁻¹

substrate: triacetin; settings: pH 7; 25 °C

Row | Protein | Km | kcat | kcat/Km
4 | B1 | 110 mM | 120 s⁻¹ | 1090 M⁻¹ s⁻¹

substrate: tributyrin; settings: pH 7; 25 °C

Row | Protein | Km | kcat | kcat/Km
5 | B1 | 0.4 mM | 100 s⁻¹ | 250000 M⁻¹ s⁻¹
6 | B3 | 0.4 mM | 18 s⁻¹ | 45000 M⁻¹ s⁻¹

substrate: tripropionin; settings: pH 7; 25 °C

Row | Protein | Km | kcat | kcat/Km
7 | B1 | 12 mM | 150 s⁻¹ | 12500 M⁻¹ s⁻¹
8 | B3 | 15 mM | 7 s⁻¹ | 467 M⁻¹ s⁻¹

substrate: vinyl acetate; settings: pH 7; 25 °C

Row | Protein | Km | kcat | kcat/Km
9 | B1 | 280 mM | 100 s⁻¹ | 357 M⁻¹ s⁻¹
10 | B3 | 170 mM | 140 s⁻¹ | 824 M⁻¹ s⁻¹

substrate: vinyl butyrate; settings: pH 7; 25 °C

Row | Protein | Km | kcat | kcat/Km
11 | B1 | 40 mM | 635 s⁻¹ | 15900 M⁻¹ s⁻¹
12 | B3 | 11 mM | 210 s⁻¹ | 19100 M⁻¹ s⁻¹

substrate: vinyl laurate; settings: pH 7; 25 °C

Row | Protein | Km | kcat | kcat/Km
13 | B1 | 5 mM | 145 s⁻¹ | 29000 M⁻¹ s⁻¹
14 | B3 | 3 mM | 31 s⁻¹ | 10300 M⁻¹ s⁻¹

substrate: vinyl propionate; settings: pH 7; 25 °C

Row | Protein | Km | kcat | kcat/Km
15 | B1 | 75 mM | 1940 s⁻¹ | 25800 M⁻¹ s⁻¹
16 | B3 | 70 mM | 105 s⁻¹ | 1500 M⁻¹ s⁻¹
